From patent US20240294585A1 (MANTRA BIO, published 2024) come the findings set out here.

Test [1] addresses T1, Isopeptide(3)_Isopeptide(1)_Isopeptide(2) domains-IGSF8 VLM fusion protein (Homo sapiens (IGSF8 portion)).
T1 construct: Flag-tagged fusion of three isopeptide domains and IGSF8; also called Tricatcher-1-IGSF8; Tricatcher-1-IGSF8 fusion protein
Description: Capillary electrophoresis-Western blot, anti-S-tag, peptide incubated 3 h at RT with modified EVs (FIG. 13). As to the method:
(§1) EVs were harvested and purified from producer cells transfected with each of the indicated recombinant isopeptide domain-containing proteins as described above in Example 11. EVs denoted as “Un” were harvested and purified in parallel from untransfected cells. Two additional GPC3 affinity peptide-Isopeptide Tag fusion peptides, namely to either Isopeptide-1 tag or Isopeptide-3 tag, are tested for the ability form a covalent bond (i.e., isopeptide bond) with the IGSF8 fusion proteins comprising IGSF8 as a VLM and an Isopeptide-2 domain (SEQ ID NO: 200 from expression vector in FIG. 2), Isopeptide-1 and Isopeptide-2 domains (SEQ ID NO: 202 from expression vector in FIG. 3) or Isopeptide-1, Isopeptide-2 and Isopeptide-3 domains (SEQ ID NO: 204 from expression vector in FIG. 4; also called Tricatcher-1-IGSF8 fusion protein), indicated as “Iso-2,” “Di” and “Tri,” respectively, for the Isopeptide domain-VLM status (see FIG. 13). GPC3 affinity peptide (PEPN)-Isopeptide-1 Tag fusion peptide and GPC3 affinity peptide-Isopeptide-3 Tag fusion peptide additionally have an S-peptide epitope tag (S-tag) and V5 epitope tag, respectively; while the IGSF fusion proteins all have a Flag epitope tag. […]
A general note: In western blotting, separated proteins are transferred to a membrane and probed.

Test [2] has as its target T2, Isopeptide(1)_Isopeptide(2) domains-IGSF VLM fusion protein (Homo sapiens (IGSF8 portion)).
T2 construct: also called Di; DiCatcher-IGSF8
The description is as above. On the procedure:
as §1

Test [3] deals with T1, Isopeptide(3)_Isopeptide(1)_Isopeptide(2 …). Description: Capillary electrophoresis-Western blot (Jess), anti-myc, peptide incubated with modified EVs. As to the method:
(§2) for a total volume of 50 μL. […] Samples are mixed by repeated pipetting. The microtiter plate is covered, spun at 50×g for 1 min and incubated at RT with shaking on an orbital shaker for 3 hrs. Reaction is terminated by adding 12.5 μL of 5× termination buffer (5% SDS, 300 mM Tris-HCl (pH 6.8)), mixing and transferring to 1.5-mL microfuge tube, and heating the tube to 95° C., 5 min. Samples are analyzed on a combined automated capillary electrophoresis and Western blot system (Jess™ Simple Western system) according to the manufacturer ProteinSimple® (San Jose, CA), using anti-myc or anti-FLAG antibody as a primary antibody followed by a goat anti-mouse secondary antibody-conjugated to horseradish peroxidase for chemiluminescent detection.

In test [4] the target is T2, Isopeptide(1)_Isopeptide(2) …. The test is described as above. On the procedure: as §2
For test [5], the target named is T3, Isopeptide(2) domain-IGSF8 VLM fusion protein (Homo sapiens (IGSF8 portion)).
T3 construct: also called Iso-2; isopeptide(2)-IGSF8
T3 chain: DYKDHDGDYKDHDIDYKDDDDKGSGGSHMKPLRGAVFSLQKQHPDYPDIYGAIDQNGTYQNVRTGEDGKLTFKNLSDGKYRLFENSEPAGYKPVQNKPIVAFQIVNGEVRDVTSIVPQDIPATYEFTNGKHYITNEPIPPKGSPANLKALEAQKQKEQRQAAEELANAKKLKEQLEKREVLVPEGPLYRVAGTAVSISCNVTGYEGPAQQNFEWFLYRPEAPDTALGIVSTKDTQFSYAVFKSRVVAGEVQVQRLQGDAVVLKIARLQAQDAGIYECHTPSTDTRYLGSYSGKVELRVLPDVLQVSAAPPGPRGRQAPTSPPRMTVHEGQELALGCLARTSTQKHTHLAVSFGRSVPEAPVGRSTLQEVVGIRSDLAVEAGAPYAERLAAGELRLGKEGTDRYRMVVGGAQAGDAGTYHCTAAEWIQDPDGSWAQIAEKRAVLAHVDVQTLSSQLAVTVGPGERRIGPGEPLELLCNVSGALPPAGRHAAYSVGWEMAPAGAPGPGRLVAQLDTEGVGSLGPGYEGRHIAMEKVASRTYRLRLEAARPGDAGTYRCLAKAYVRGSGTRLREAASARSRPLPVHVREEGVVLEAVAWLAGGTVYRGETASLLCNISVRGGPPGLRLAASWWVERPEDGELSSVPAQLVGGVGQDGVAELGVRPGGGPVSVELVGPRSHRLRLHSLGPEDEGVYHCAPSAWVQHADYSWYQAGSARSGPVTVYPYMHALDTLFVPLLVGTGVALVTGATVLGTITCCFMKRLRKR
Description: Capillary electrophoresis-Western blot (Jess), anti-myc, 50 µM peptide, 3 h at RT with modified EVs. As to the method: as §2

In test [6] the target is T1, Isopeptide(3)_Isopeptide(1)_Isopeptide(2 …). Briefly: Capillary electrophoresis-Western blot, anti-V5, peptide incubated 3 h at RT with modified EVs (FIG. 13). As to the method: as §1
For test [7] the target is unchanged. Briefly: Cy3 fluorescence on SDS-PAGE, conjugate incubated with modified EVs. As to the method:
3 μL 500 mM DTT. Samples are mixed, vortexed briefly, spun and heated to 95° C. for 5 min before loading 15 μL per well of NuPAGE® Bis-Tris precast gel. Gel is run at 125V for 1 hr using 1×2-(N-morpholino)ethanesulfonic acid (MES) buffer, following gel manufacturer recommendation, with the loading dye front permitted to run off the gel in order to better separate high molecular weight bands. Seeblue Plus 2 Pre-stained Standard is used as molecular weight standard to follow the course of the electrophoresis and well as a reference for the determining the apparent molecular weight of the targeting moiety-VLM conjugate, in particular, the 5′-IsoPepTag1-ASO-Tricatcher-1-IGSF8 and 3′-IsoPepTag1-ASO-Tricatcher-1-IGSF8 conjugates.

The target of test [8] is T3, Isopeptide(2) domain-IGSF8 VLM fusion …. Description: Capillary electrophoresis-Western blot (Jess), anti-myc, peptide incubated with modified EVs. As to the method: as §2

B1: S-tag labeled Isopeptide(1) tag fusion peptide, SEQ ID NO: 238 (peptide)
peptide: AHIVMVDAYKPTKSGGGGSGGGGKETAAAKFERQHMDSTHVSPNQGGLPS
notes: Order is isopeptide-1 tag, linker, S-tag, PEPN; also called C-terminal PEPN + Isopeptide(1) tag
Take B1: the binding result in test [1] and in test [2] was “binds” in each case.

B2: N-IsoPep2Tag-PEPN (peptide)
peptide: KLGDIEFIKVNKSGGGGSGGGGEQKLISEEDLTHVSPNQGGLPS
notes: also called Isopeptide-2 tag-PEPN fusion peptide (tag at N-terminus); C-terminal PEPN + Isopeptide(2) tag
On to B2, for which the binding result in test [3], in test [4] and in test [5] was “binds” throughout.

B3: V5-epitope tagged Isopeptide(3) tag fusion peptide, SEQ ID NO: 244 (peptide)
peptide: THVSPNQGGLPSSGGGGSGGGGGKPIPNPLLGLDSTDPIVMIDNDKPIT
notes: also called N-terminal PEPN + Isopeptide(3) tag
With B3, the binding result in test [6] is listed as “binds”.

B4: 3′-IsoPepTag1-ASO (peptide)
peptide: CAHIVMVDAYKPTK
modifications: N-terminal Cys joined by click chemistry to the 3′ end of the antisense oligonucleotide TGC GCT CCT GGA CGT AGC C, which carries Cy3 at its 5′ end
notes: Peptide-oligonucleotide conjugate; also called 3′-IsoPep1Tag-ASO; C-IsoPep1Tag-ASO
B4: the binding result in test [7] was “binds”.

B5: 5′-IsoPepTag1-ASO (peptide)
peptide: AHIVMVDAYKPTKC
modifications: C-terminal Cys joined by click chemistry to the 5′ end of the antisense oligonucleotide TGC GCT CCT GGA CGT AGC C, which carries Cy3 at its 3′ end
notes: Peptide-oligonucleotide conjugate; also called 5′-IsoPep1Tag-ASO; Cy3-labeled IsoPep1Tag-ASO conjugate
For B5, the binding result in test [7] is on record as “binds”.

B6: V5-epitope tagged Isopeptide(3) tag fusion peptide, SEQ ID NO: 246 (peptide)
peptide: DPIVMIDNDKPITSGGGGSGGGGGKPIPNPLLGLDSTTHVSPNQGGLPS
notes: also called C-terminal PEPN + Isopeptide(3) tag
In the case of B6, the binding result in test [6] was “binds”.

B7: C-IsoPep2Tag-PEPN (peptide)
peptide: THVSPNQGGLPSSGGGGSGGGGEQKLISEEDLKLGDIEFIKVNK
notes: also called Isopeptide-2 tag-PEPN fusion peptide (tag at C-terminus); N-terminal PEPN + Isopeptide(2) tag
As to B7, the binding result in test [3], in test [8] and in test [4] was “binds” throughout.
